Source: US20210060169A1

Biological target: human IL-2Rαβγ (human) (UniProt P01589)
Assay: cell-based or functional assay

Sequence of 8His-S4(oAzZK) (P60568 other isoform, or with tags, fused parts or gaps): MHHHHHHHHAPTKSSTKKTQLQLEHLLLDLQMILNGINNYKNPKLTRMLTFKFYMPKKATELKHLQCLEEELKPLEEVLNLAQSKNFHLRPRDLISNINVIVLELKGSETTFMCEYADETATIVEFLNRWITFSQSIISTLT
Sequence of human IL-2Rαβγ (human) (P01589 22-272, chain 1 of 3): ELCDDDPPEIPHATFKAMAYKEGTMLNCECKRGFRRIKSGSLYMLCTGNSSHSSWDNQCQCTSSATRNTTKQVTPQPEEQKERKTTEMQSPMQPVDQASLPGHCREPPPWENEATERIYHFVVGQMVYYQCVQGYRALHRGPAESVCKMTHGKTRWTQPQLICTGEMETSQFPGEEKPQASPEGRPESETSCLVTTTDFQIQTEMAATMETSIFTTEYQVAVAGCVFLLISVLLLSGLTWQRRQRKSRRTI
Sequence of human IL-2Rαβγ (human) (P14784 27-551, chain 2 of 3, further chain): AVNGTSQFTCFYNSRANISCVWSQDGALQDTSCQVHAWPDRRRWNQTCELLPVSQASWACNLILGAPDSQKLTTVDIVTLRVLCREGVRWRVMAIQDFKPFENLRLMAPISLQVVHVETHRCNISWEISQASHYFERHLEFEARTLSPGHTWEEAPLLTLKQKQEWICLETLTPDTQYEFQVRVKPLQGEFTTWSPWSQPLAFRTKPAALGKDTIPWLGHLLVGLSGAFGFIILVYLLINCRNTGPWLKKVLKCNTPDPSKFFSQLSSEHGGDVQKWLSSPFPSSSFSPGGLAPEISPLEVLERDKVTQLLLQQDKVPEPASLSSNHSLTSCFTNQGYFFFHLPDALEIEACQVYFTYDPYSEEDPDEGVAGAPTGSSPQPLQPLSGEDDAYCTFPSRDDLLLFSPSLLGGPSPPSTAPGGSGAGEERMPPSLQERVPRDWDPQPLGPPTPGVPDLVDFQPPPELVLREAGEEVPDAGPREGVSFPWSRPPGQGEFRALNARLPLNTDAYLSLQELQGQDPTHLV
Sequence of human IL-2Rαβγ (human) (P31785 23-369, chain 3 of 3, further chain): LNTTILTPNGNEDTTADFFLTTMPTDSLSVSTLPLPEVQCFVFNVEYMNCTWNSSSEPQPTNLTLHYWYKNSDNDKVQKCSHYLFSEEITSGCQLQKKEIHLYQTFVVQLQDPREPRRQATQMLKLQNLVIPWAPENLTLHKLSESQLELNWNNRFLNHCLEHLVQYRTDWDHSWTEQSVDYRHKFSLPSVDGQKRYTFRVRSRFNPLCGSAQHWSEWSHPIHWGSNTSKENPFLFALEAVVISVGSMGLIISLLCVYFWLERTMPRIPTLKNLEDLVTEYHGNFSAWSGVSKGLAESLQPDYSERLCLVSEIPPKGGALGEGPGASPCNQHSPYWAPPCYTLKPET

Standardized EC50 ratio value: < 5
Substance: 8His-S4(oAzZK) (from UniProt P60568 25-153) (ligand)
